In article PMC5836133, “The intracellular immune receptor Rx1 regulates the DNA-binding activity of a Golden2-like transcription factor”:
Values joined by “and” are separate entries in the source; they are usually repeats but may differ in a detail not shown here. Equal values may be shown once.

Key:
NbGlk1(83-243) [1] = biological target: T1, NbGlk1(83-243) (Nicotiana benthamiana, UniProt A0A1S4ALG4 83-252); assay: fluorescence anisotropy; conditions: 20 mM Tris-HCl pH 7.4, 140 mM NaCl, 1 mM DTT, 10 nM fluorescein-labelled dsDNA, temperature not stated, Kd unit uM inferred from text (Kd >1 uM)
T1 sequence: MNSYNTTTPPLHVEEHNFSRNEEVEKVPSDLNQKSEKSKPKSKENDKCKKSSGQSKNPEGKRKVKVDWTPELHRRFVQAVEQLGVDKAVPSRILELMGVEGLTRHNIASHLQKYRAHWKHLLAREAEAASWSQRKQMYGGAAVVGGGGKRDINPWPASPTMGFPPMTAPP

NbGlk1(83-402) [2] = biological target: T2, NbGlk1(83-402) (Nicotiana benthamiana, UniProt A0A1S4ALG4 83-410); assay: fluorescence anisotropy; conditions: 20 mM Tris-HCl pH 7.4, 140 mM NaCl, 1 mM DTT, 10 nM fluorescein-labelled dsDNA, temperature not stated, Kd unit uM inferred from text (Kd >1 uM)
T2 sequence: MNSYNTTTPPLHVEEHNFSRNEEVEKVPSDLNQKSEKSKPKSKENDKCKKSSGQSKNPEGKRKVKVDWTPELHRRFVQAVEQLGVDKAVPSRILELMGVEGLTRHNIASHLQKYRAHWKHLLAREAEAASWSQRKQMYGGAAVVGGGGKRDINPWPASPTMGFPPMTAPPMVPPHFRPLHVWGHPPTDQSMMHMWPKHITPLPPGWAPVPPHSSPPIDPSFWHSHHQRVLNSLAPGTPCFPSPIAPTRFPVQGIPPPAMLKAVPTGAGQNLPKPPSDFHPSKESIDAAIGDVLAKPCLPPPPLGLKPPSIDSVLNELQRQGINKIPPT

[3] = tested on: NbGlk1(1-243) (Nicotiana benthamiana); assay: fluorescence anisotropy; conditions: 20 mM Tris-HCl pH 7.4, 140 mM NaCl, 1 mM DTT, 10 nM fluorescein-labelled dsDNA, temperature not stated, Kd unit uM inferred from text (Kd >1 uM)
NbGlk1(83-243) [4] = biological target: T3, NbGlk1(83-243) (Nicotiana benthamiana); assay: fluorescence anisotropy; Fluorescence anisotropy: 20 mM Tris-HCl pH 7.4, 140 mM NaCl, 1 mM DTT, 10 nM labelled DNA; temperature not stated. PBM conditions as in cited protocols.; conditions: protein: recombinant, tags: His6 (pET14b), annealed complementary oligonucleotides
T3 chain: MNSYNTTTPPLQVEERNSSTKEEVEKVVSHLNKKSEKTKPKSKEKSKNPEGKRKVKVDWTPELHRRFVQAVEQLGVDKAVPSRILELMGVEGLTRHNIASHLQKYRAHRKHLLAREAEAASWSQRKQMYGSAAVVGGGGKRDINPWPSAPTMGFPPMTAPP

NbGlk1(83-402) [5] = biological target: T4, NbGlk1(83-402) (Nicotiana benthamiana); assay: as above; conditions: protein: recombinant, tags: His6 (pET14b), annealed complementary oligonucleotides
T4 chain: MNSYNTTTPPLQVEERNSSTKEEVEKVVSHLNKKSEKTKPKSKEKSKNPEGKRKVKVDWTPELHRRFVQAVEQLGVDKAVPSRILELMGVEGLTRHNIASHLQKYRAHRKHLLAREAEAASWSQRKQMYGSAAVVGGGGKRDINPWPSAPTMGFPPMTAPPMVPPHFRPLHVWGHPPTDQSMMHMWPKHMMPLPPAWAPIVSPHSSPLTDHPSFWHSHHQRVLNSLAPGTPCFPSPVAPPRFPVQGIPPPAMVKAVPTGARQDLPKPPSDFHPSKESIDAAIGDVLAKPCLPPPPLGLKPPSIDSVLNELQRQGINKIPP

NbGlk1(83-243) [6] = biological target: T1, NbGlk1(83-243); assay: fluorescence anisotropy; no Rx1; 20 mM Tris-HCl pH 7.4, 140 mM NaCl, 1 mM DTT; 10 nM fluorescein-labelled dsDNA; temperature not stated; Kd unit uM inferred from text (Kd >1 uM); conditions: protein: recombinant; tags: His6 (pET14b); label: 6-carboxyfluorescein end label on FA-1; annealed complementary oligonucleotides
NbGlk1(83-402) [7] = biological target: T2, NbGlk1(83-402); assay: as above; conditions: protein: recombinant; tags: His6 (pET14b); label: 6-carboxyfluorescein end label on FA-1; annealed complementary oligonucleotides
NbGlk1(83-402) [8] = biological target: T2, NbGlk1(83-402); assay: fluorescence anisotropy; no Rx1 (Table 2 series); 20 mM Tris-HCl pH 7.4, 140 mM NaCl, 1 mM DTT; 10 nM fluorescein-labelled dsDNA; temperature not stated; Kd unit uM inferred from text (Kd >1 uM); conditions: protein: recombinant; tags: His6 (pET14b); label: 6-carboxyfluorescein end label on FA-1; annealed complementary oligonucleotides
[9] = label: 6-carboxyfluorescein end label on FA-5
[10] = label: 6-carboxyfluorescein end label on FA-3
[11] = label: 6-carboxyfluorescein end label on FA-1

Binder | Kd (NbGlk1(83-243) [1]; + Rx1(1-144)) [µM] | Kd (NbGlk1(83-243) [1]; + Rx1(1-489)) [µM] | Kd (NbGlk1(83-243) [1]; no Rx1) [µM] | Kd (NbGlk1(83-402) [2]; + Rx1(1-144)) [µM] | Kd (NbGlk1(83-402) [2]; + Rx1(1-489)) [µM] | Kd (NbGlk1(83-402) [2]; + Rx1(GST-1-144)) [µM] | Kd (NbGlk1(83-402) [2]; no Rx1 (Table 2 series)) [µM] | Kd (NbGlk1(83-402) [2]; no Rx1) [µM] | Kd ([3]; + Rx1(1-144)) [µM] | Kd ([3]; + Rx1(1-489)) [µM] | Kd ([3]; no Rx1, text: only a weak affinity) [µM] | Kd (NbGlk1(83-243) [4]; [9]) [nM] | Kd (NbGlk1(83-402) [5]; [9]) | Kd (NbGlk1(83-243) [4]; [10]) [nM] | Kd (NbGlk1(83-402) [5]; [10]) | Kd (NbGlk1(83-243) [4]; [11]) [nM] | Kd (NbGlk1(83-402) [5]; [11]) | Kd (NbGlk1(83-243) [6]) [nM] | Kd (NbGlk1(83-402) [7]) [nM] | Kd (NbGlk1(83-402) [8]) [nM]
GATATC (concatenated GGATATCC; FA-5/FA-6) (dsDNA) DNA 1: CGGATATCCACGGATATCCACGGATATCCACGGATATCCACGGATATCCC DNA 2: GGGATATCCGTGGATATCCGTGGATATCCGTGGATATCCGTGGATATCCG | 0.4 | 0.5 | 0.18 | 0.3 | 0.19 | 0.34 | 0.11 | 0.08 | > 1 | > 1 | > 1 | 180 ± 10 | 80 nM and 110 nM | – | – | – | – | – | – | –
AGATTT (concatenated AGATTTCC; FA-3/FA-4) (dsDNA) DNA 1: CAGATTTCCACAGATTTCCACAGATTTCCACAGATTTCCACAGATTTCCC DNA 2: GGGAAATCTGTGGAAATCTGTGGAAATCTGTGGAAATCTGTGGAAATCTG | 0.76 | 0.65 | 0.23 | 0.46 | 0.34 | 0.73 | 0.22 | 0.16 | – | – | – | – | – | 230 ± 10 | 160 nM and 220 nM | – | – | – | – | –
No site (FA-1/FA-2) (dsDNA) DNA 1: CACTGTGACACACTGTGACACACTGTGACACACTGTGACACACTGTGACC DNA 2: GGTCACAGTGTGTCACAGTGTGTCACAGTGTGTCACAGTGTGTCACAGTG | – | – | – | – | – | – | – | – | – | – | – | – | – | – | – | 330 ± 20 | 320 nM and 180 nM | 330 ± 20 | 180 ± 10 | 320 ± 30
